Data reported in patent US20040014187A1, “Bacterial carboxypeptidase cpg2 variants and their use in gene directed enzyme prodrug therapy” (priority 2000, published 2004).
Substitutions are numbered along the chain they refer to. Numbers in names are those of the source. Entries after “also recorded” stand apart in the source; their conditions may differ. Like-named read-outs stand apart in the source and are kept apart here.

B1: CPG2* (cytosolic carboxypeptidase G2 from Pseudomonas strain RS16) (enzyme)
chain: ALAQKRDNVLFQAATDEQPAVIKTLEKLVNIETGTGDAEGIAAAGNFLEAELKNLGFTVTRSKSAGLVVGDNIVGKIKGRGGKNLLLMSHMDTVYLKGILAKAPFRVEGDKAYGPGIADDKGGNAVILHTLKLLKEYGVRDYGTITVLFNTDEEKGSFGSRDLIQEEAKLADYVLSFEPTSAGDEKLSLGTSGIAYVQVNITGKASHAGAAPELGVNALVEASDLVLRTMNIDDKAKNLRFNWTIAKAGNVSNIIPASATLNADVRYARNEDFDAAMKTLEERAQQKKLPEADVKVIVTRGRPAFNAGEGGKKLVDKAVAYYKEAGGTLGVEERTGGGTDAAYAALSGKPVIESLGLPGFGYHSDKAEYVDISAIPRRLYMAARLIMDLGAGK
notes: Homodimer; also called COS/CPG2*
B2: CPG2*(N264L): cytosolic CPG2* with N to L substitution at position 264 (protein)
chain: B1 chain with N242L
B3: CPG2*(N222L) (enzyme)
chain: B1 chain with N200L
notes: Cytosolic form expressed in COS cells
B4: CPG2*(QSQ) (enzyme)
chain: B1 chain with N200Q, N242S, N250Q
notes: also called COS/CPG2* (QSQ)
B5: CPG2*(N272): cytosolic CPG2* with N to L substitution at position 272 (protein)
chain: B1 chain with N250L
B6: CPG2*(Q)3: cytosolic CPG2* bearing three asparagine to glutamine mutations (N222, N264, N272) (protein)
chain: B1 chain with N200Q, N242Q, N250Q
B7: COS/stCPG2 (Q, NWV, Q): CPG2 with T266 altered to V266 in the context of Q222 and Q272 (protein, UniProt P06621 23-415, looked up, variant N222Q T266V N272Q)
Carboxypeptidase G2: B1 chain with N200Q, T244V, N250Q
modifications: surface tethered
notes: CPG2 with T266 altered to V266 in the context of Q222 and Q272
B8: CPG2*(QTQ): cytosolic CPG2*(Q)3 with the glutamine at position 264 substituted with threonine (protein)
chain: B1 chain with N200Q, N242T, N250Q
B9: CPG2*(QAQ): cytosolic CPG2*(Q)3 with the glutamine at position 264 substituted with alanine (protein)
chain: B1 chain with N200Q, N242A, N250Q
B10: stCPG2(QTQ): surface tethered CPG2, Q222, T264, Q272 (protein)
chain: ALAQKRDNVLFQAATDEQPAVIKTLEKLVNIETGTGDAEGIAAAGNFLEAELKNLGFTVTRSKSAGLVVGDNIVGKIKGRGGKNLLLMSHMDTVYLKGILAKAPFRVEGDKAYGPGIADDKGGNAVILHTLKLLKEYGVRDYGTITVLFNTDEEKGSFGSRDLIQEEAKLADYVLSFEPTSAGDEKLSLGTSGIAYVQVQITGKASHAGAAPELGVNALVEASDLVLRTMNIDDKAKNLRFTWTIAKAGQVSNIIPASATLNADVRYARNEDFDAAMKTLEERAQQKKLPEADVKVIVTRGRPAFNAGEGGKKLVDKAVAYYKEAGGTLGVEERTGGGTDAAYAALSGKPVIESLGLPGFGYHSDKAEYVDISAIPRRLYMAARLIMDLGAGKDLDDKGCPAEQRASPLTSIISAVVGILLVVVLGVVFGILIKRRQQKIRKYT
B11: stCPG2(QAQ): surface tethered CPG2, Q222, A264, Q272 (protein)
chain: B10 chain with T242A
B12: stCPG2(QSQ): surface tethered CPG2, Q222, S264, Q272 (protein)
chain: B10 chain with T242S

How the values were obtained:
[1] = target: the molecule itself; assay: non-reducing SDS-PAGE of COS cell extracts (homodimer)
Excerpt: We first determined why the asparagine to glutamine mutations that blocked glycosylation reduced CPG2s enzyme activity. […] We next tested each position independently.

[2] = previous study, cited from earlier work
[3] = Enzyme kinetic studies of CPG2-derived enzymes in detergent soluble cell extracts, MTX as substrate; format: biochemical; settings: for Catalytic activity (%): specific activity of COS/CPG2* (50 ng CPG2*) assigned as 100%; for catalytic activity compared to CPG2*(Q)3: increase relative to CPG2*(Q)3; for increase in Km (decrease in apparent affinity for MTX) compared to CPG2*(Q)3: relative to CPG2*(Q)3
Excerpt: Detergent soluble cell extracts, and enzyme kinetic analyses have been described previously (Marais et al (1996) Cancer Res. 56, 4735-4742; Marais et al (1997) Nature Biotech. 15, 1373-1377).

[4] = CPG2 enzyme activity in detergent soluble extracts of stably expressing clones, MTX as substrate; format: biochemical; settings: for CPG2 activity (U/mg): U/mg detergent soluble protein, clone as in label
Excerpt: All mammalian cell lines were maintained in Dulbecco's Modified Eagle's Medium supplemented with 10% foetal calf serum (DMEM/FCS). For this study, the human colorectal carcinoma cell line WiDr (Noguchi et al (1979) In Vitro. 15, 401-408, and the human ovarian carcinoma cell lines SK-OV-3 (Hill et al. (1987) 39, 219-225) and A2780 (Louie et al. (1985) Cancer Res. 45, 2110-2115) were separately transfected with the plasmid pMCEFstcpg2(Q)3 (Marais et al (1997) Nature Biotech. 15, 1373-1377) and G418-resistant colonies were selected by limiting dilution. Detergent soluble extracts were incubated with methotrexate, a good carboxypeptidase G2 substrate. Rate of change of absorbance at 320 nm was measured to identify those colonies able to degrade MTX and therefore likely to express stCPG2(Q)3. Expression of stCPG2(Q)3 was confirmed by immunoblotting these detergent soluble extracts using a rabbit polyclonal serum specific for CPG2 (Marais et al (1996) Cancer Res. 56, 4735-4742; Marais et al (1997) Nature Biotech. 15, 1373-1377). Cell lines constitutively expressing β-galactosidase or CPG2* have been described (Marais et al (1996) Cancer Res. 56, 4735-4742; Marais et al (1997) Nature Biotech. 15, 1373-1377).
In order to conduct these studies, we engineered WiDr (human colorectal adenocarcinoma), SK-OV-3 and A2780 (both human ovarian tumour lines) cells for stable expression of stCPG2(Q)3. The presence of stCPG2(Q)3 was verified by immunoprotein blotting (data not shown) and the levels of enzyme activity in these clones were determined using MTX as substrate (Table 2). For each line two or three clones were examined. The SK-OV-3 clones expressed the lowest levels of CPG2 activity (0.016 and 0.023 U/mg protein) followed by the A2780 clones (0.06 and 0.067 U/mg), with WiDr clones expressing the highest level of CPG2 activity (0.177 and 0.226 U/mg) (Table 2).

[5] = CPG2 dimer stability by non-reducing SDS-polyacrylamide gel electrophoresis of COS cell extracts; settings: sample not heated
Excerpt: To test this, CPG2* was transiently expressed in COS cells and the stability of the dimers determined by non-reducing SDS-polyacrylamide gels.

[6] = substrate MTX, detergent soluble cell extract, read-out: Km (μM MTX)

Row | Molecule | Catalytic activity (%) [3] | Km [3, 6] [µM] | dimer stability [5] | further results
1 | B1 | 100% | 7.2 | – | binding result [1]: binds; CPG2 enzyme activity ([2]; A2780 clone expressing CPG2*): 0.964 U/mg; CPG2 enzyme activity ([2]; SK-OV-3 clone expressing CPG2*): 1.013 U/mg; CPG2 enzyme activity ([2]; WiDr clone expressing CPG2*): 0.787 U/mg; enzyme activity of CPG2* clone relative to stCPG2(Q)3 clones ([4]; A2780): ~15 times; CPG2 activity (U/mg) ([4]; listed as S2.34 CPG2*): 0.023 U/mg; CPG2 activity (U/mg) ([4]; listed as S2.4 CPG2*): 0.014 U/mg
2 | B2 | – | – | migrated as a monomer | –
3 | B3 | – | – | formed stable dimers | binding result [1]: binds
4 | B4 | 58% | 58 | improved; also recorded: restored weak dimer stability | binding result [1]: binds; catalytic activity compared to CPG2*(Q)3 [3]: almost twice as active; increase in Km (decrease in apparent affinity for MTX) compared to CPG2*(Q)3 [3]: ~6 fold
5 | B5 | – | – | formed stable dimers | –
6 | B6 | – | – | unstable | –
7 | B7 | 55% | 90 | – | Km ([3]; unit μm [sic], read-out: Km): 90 µM
8 | B8 | 78% | 125 | did not restore dimer stability; also recorded: not improved | catalytic activity compared to CPG2*(Q)3 [3]: ~2.5 fold; increase in Km (decrease in apparent affinity for MTX) compared to CPG2*(Q)3 [3]: ~12 fold
9 | B9 | essentially inactive | – | did not restore dimer stability; also recorded: not improved | Catalytic activity (%) ([3]; listed as COS/CPG2* (QAQ)): Very low
10 | B10 | 29% | 45 | did nor form stable dimers | –
11 | B11 | 38% | 69 | did nor form stable dimers | –
12 | B12 | 40% | 51 | weak dimers | –
